{"source": "paper PMC9927813", "about": "“Discovery of DNA aptamers targeting SARS-CoV-2 nucleocapsid protein and protein-binding epitopes for label-free COVID-19 diagnostics”", "binders": {"B1": {"name": "NSP1 (ssDNA)", "DNA": "CTCCTCTGACTGTAACCACGGCGCAAGCCGGGGTGTACGTGTTATACGTGCGTGTATCGAGCATAGGTAGTCCAGAAGCC"}, "B2": {"name": "NSP2 (ssDNA)", "DNA": "CTCCTCTGACTGTAACCACGTATTGCGTTCCAGTCCCTATGACCAACGTCACAATAAGTCGCATAGGTAGTCCAGAAGCC"}, "B3": {"name": "A48 (ssDNA)", "DNA": "GCTGGATGTCGCTTACGACAATATTCCTTAGGGGCACCGCTACATTGACACATCCAGC"}, "B4": {"name": "biotinylated tNSP2 (ssDNA)", "DNA": "CTGACTGTAACCACGTATTGCGTTCCAGTCCCTATGACCAACGTCACAATAAGTCGCATAGGTA"}, "B5": {"name": "NSP3 (ssDNA)", "DNA": "CTCCTCTGACTGTAACCACGCAGCGTCACGTGTTGTTCCCCATTGTACTGATTCGTCGTGGCATAGGTAGTCCAGAAGCC"}, "B6": {"name": "tNSP2 (ssDNA)", "DNA": "B4 DNA"}, "B7": {"name": "tNSP9 (ssDNA)", "DNA": "TGTAACCACGTGCTAGATTACGTAACTGGTTGCTACGGGTTTCATCCTCGGCATAGGTA"}, "B8": {"name": "tNSP12 (ssDNA)", "DNA": "TGTAACCACGTGGTTCGCCCAGTTCCGTTCAATACACTCAACCCTGCACGGCATAGGTA"}}, "key": {"[1]": {"target": "T1, SARS-CoV-2 nucleocapsid (N) protein, wild type (SARS-CoV-2 (wild type), UniProt P0DTC9 1-419)", "experiment": "BLI; BLI ([…], DPBS + 0.5 mM MgCl2 + 1 mM CaCl2, pH 7.4; […] (PBST)", "conditions": "protein: commercial; tags: His; chain copies: 2"}, "SARS-CoV-2 S1 protein": {"target": "SARS-CoV-2 S1 protein (SARS-CoV-2, UniProt P0DTC2 13-685)", "experiment": "BLI; BLI ([…], DPBS + 0.5 mM MgCl2 + 1 mM CaCl2, pH 7.4; […] (PBST)", "conditions": "protein: commercial"}, "[2]": {"target": "T1, SARS-CoV-2 nucleocapsid (N) protein, …", "experiment": "BLI; aptamer on streptavidin sensor, PBST; BLI ([…], DPBS + 0.5 mM MgCl2 + 1 mM CaCl2, pH 7.4; […] (PBST)", "conditions": "protein: commercial; tags: His; chain copies: 2"}, "[3]": {"target": "SARS-CoV-2 N protein, in-house (SARS-CoV-2 (wild type), UniProt P0DTC9 1-419)", "experiment": "BLI; aptamer on streptavidin sensor, PBST; BLI ([…], DPBS + 0.5 mM MgCl2 + 1 mM CaCl2, pH 7.4; […] (PBST)", "conditions": "protein: recombinant; chain copies: 2"}, "[4]": {"target": "T1, SARS-CoV-2 nucleocapsid (N) protein, …", "experiment": "BLI; N protein on Ni-NTA sensor; BLI ([…], DPBS + 0.5 mM MgCl2 + 1 mM CaCl2, pH 7.4; […] (PBST)", "conditions": "protein: commercial; tags: His; chain copies: 2"}}, "data": [{"binder": "B1", "values": [{"measurement": "Kd", "setting": "[1]", "value": "7.86 ± 1.17", "unit": "nM"}]}, {"binder": "B2", "values": [{"measurement": "Kd", "setting": "[1]", "value": "4.38 ± 1.21", "unit": "nM"}]}, {"binder": "B3", "values": [{"measurement": "Kd", "setting": "[1]", "value": "6.46 ± 1.04", "unit": "nM"}]}, {"binder": "TAACCACGGCGCAAGCCGGGGTGTACGTGTTATACGTGCGTGTATCGAG (ssDNA)", "note": "[biotinylated tNSP1]", "values": [{"measurement": "binding result", "setting": "SARS-CoV-2 S1 protein", "value": "no binding"}, {"measurement": "Kd", "setting": "[2]", "value": "4.83 ± 1.09", "unit": "nM"}]}, {"binder": "B4", "values": [{"measurement": "binding result", "setting": "SARS-CoV-2 S1 protein", "value": "no binding"}, {"measurement": "Kd", "setting": "[2]", "value": "4.51 ± 1.5", "unit": "nM"}]}, {"binder": "CAGCGTCACGTGTTGTTCCCCATTGTACTGATTCGTCGTGGCAT (ssDNA)", "note": "[biotinylated tNSP3]", "values": [{"measurement": "binding result", "setting": "SARS-CoV-2 S1 protein", "value": "no binding"}, {"measurement": "Kd", "setting": "[2]", "value": "2.91 ± 1.02", "unit": "nM"}, {"measurement": "Kd", "setting": "[3]", "value": "7.52 ± 0.5", "unit": "nM"}]}, {"binder": "B5", "values": [{"measurement": "Kd", "setting": "[1]", "value": "8.6 ± 1.06", "unit": "nM"}]}, {"binder": "TAACCACGGCGCAAGCCGGGGTGTACGTGTTATACGTGCGTGTATCGAG (ssDNA)", "note": "[tNSP1]", "values": [{"measurement": "Kd", "setting": "[4]", "value": "4.53 ± 0.96", "unit": "nM"}]}, {"binder": "B6", "values": [{"measurement": "Kd", "setting": "[4]", "value": "3.04 ± 1.53", "unit": "nM"}]}, {"binder": "CAGCGTCACGTGTTGTTCCCCATTGTACTGATTCGTCGTGGCAT (ssDNA)", "note": "[tNSP3]", "values": [{"measurement": "Kd", "setting": "[4]", "value": "5.77 ± 1.17", "unit": "nM"}]}, {"binder": "ATTCATGCGCCAATAGTGGTTTGGAAATGTCTCCCCATACGCATAG (ssDNA)", "note": "[tNSP5]", "values": [{"measurement": "Kd", "setting": "[1]", "value": "12.6 ± 2.56", "unit": "nM"}]}, {"binder": "B7", "values": [{"measurement": "Kd", "setting": "[1]", "value": "22.2 ± 1.87", "unit": "nM"}]}, {"binder": "CTTATGCACCAGGGGCCCGGTTCGGGCAGGCGCAAACACGGCATAGG (ssDNA)", "note": "[tNSP10]", "values": [{"measurement": "Kd", "setting": "[1]", "value": "8.6 ± 1.2", "unit": "nM"}]}, {"binder": "B8", "values": [{"measurement": "Kd", "setting": "[1]", "value": "6.05 ± 2.41", "unit": "nM"}]}]}
